The values that follow come from the DeepSol protein solubility set.

This data set can be described thus: soluble on expression in E. coli; label from the status in PepcDB or PDB records.
As for “MTRTETLELLVATLQQTNASQSESIRQLTRQNEQLQNKLDELLAQVAWLNRQLFGRKSEKLSRLDPNQLSLFEQPVQSLEPEPLEETVVEQTTTPMVTKKKERQNRKLLEGLPVVEVVIEPQDLDLTKYKRIGEEHTRTLEFEPGKLYVKEIIRPKYGLKDNTALPQEYQDGIVIADLPLLPIYKGLPGASLLAEILLQKYEYHVPFYRQIREFHHLGLKIPENTLHGWFKPACELLKPLYDELKKQVLAVDYIQVDETTLPIINKQSHKAVREYLWMVRAVTSGLVFFHYDDGSRSQETARNLLEPFKGYLQSDGYAAYNVFEGKERVCLVGCLVHIRRHYETAKEENKSQAKYVLAKIQELYRIEQAADIQGISPEMRMSKRQKQALPILDELEQWMETTYPKVLPKSQMGQAIAYAYTLWPRMRNYLKDGKLKIDNNLAENAIRPIALSRKNFLFCGNHEAAENTDVICSLLASCKASQVNPREWLTEIIAWLPYYTRDKGKDLKELLPNYWKLRRSKEI”, the “soluble on expression in E. coli” value is reported as “not soluble”. Regarding “MTRYALLVRGINVGGKNKVVMAELRQELTNLGLEKVESYINSGNIFFTSIDSKAQLVEKLETFFAVHYPFIQSFSLLSLEDFEAELENLPAWWSRDLARKDFLFYTEGLDVDQVIATVESLELKDEVLYFGKLGIFWGKFSEESYSKTAYHKYLLKVPFYRHITIRNAKTFDKIGQMLKK”, the “soluble on expression in E. coli” value is “soluble”. “MTSAAQLTALLHLASPALPVGAFSYSQGLEAAVEARHVHDEASAARWIAEGLAVLAACEAPLWLLQYADWQAGRLDAVAERDGWFLATRETRELRLETAQMGWSLARLIAQMGWGAPAMRDALAARAAITFPTAFAAAAVALGIEARDGLTAYSFAWVENQVAAAVKAIPLGQAAGQRILFGLHAAVGQAAEDAARRAACHPPELSTFSPGLGVLSARHETQYSRLFRSLEHHHHHH”: the “soluble on expression in E. coli” value is given as “not soluble”. The entry for “MTSAHDIDLQQILTDRLTGASPDLLRELLTMFIHTLMGAEADALCGAGYGQRSEERTNSRNGYRHRDFDTRVGTLDVAIPKLRSGSYFPDWLLERRKRAEKALTTVVATCYLLGVSTRRMDRLVDTLGITGLSKSQVSVMAKDLDTQVEAFRSRPLDTGPYTFVAADALVLKVRENGRVVNVHTLVAVGVNAEGYREILGVDVTSSEDGAGWLAFFRSLVARGLGGVRLVTSDAHAGLVAAIGGTLPGASWQRCRTHYSTNLMAVTPKASWPWVKTLLHSVYDQPDADSVHAQYDRIIGALSEKLPRVADHLDAARPDLLAFTAFPKQIWKQIWSNNPQERLNKEIRRRTDVVGIFPDRTALIRLVGAVLAEQHDEWIEGRRYLGLDVLARSRNDKPTDSSTESTEEVTPALTA” is “not soluble”; for “MTSDNKQEYTIHIFGQDITSQDGLFRLDEIRRVGIQIGKVEDNRSTEVARFMRTKAGRSLTNPENGFVKKINMGHLGTSWLADPVAAIEFGRWLDLGYGLAVTRAFVSMTSSATVQSAVASAEDIKPETKEFIQRHGTGLYIAGREVSQAEYSDYQAVTAGRCEWR” it is “not soluble”. With “MTSEQYSVKLTPDFDNPKWIGRHKHMFNFLDVNHNGRISLDEMVYKASDIVINNLGATPEQAKRHKDAVEAFFGGAGMKYGVETEWPEYIEGWKRLASEELKRYSKNQITLIRLWGDALFDIIDKDQNGAISLDEWKAYTKSDGIIQSSEDCEETFRVCDIDESGQLDVDEMTRQHLGFWYTMDPACEKLYGGAVP”, the “soluble on expression in E. coli” value is listed as “soluble”. Under “MTSIIKLKVFSGAKDEGPLCYLLQVDGDYILLDCGWDERFGLQYFEELKPFIPKISAVLISHPDPLHLGGLPYLVSKCGLTAPVYATVPVYKMGQMFIYDMVYSHLDVEEFEHYTLDDVDTAFEKVEQVKYNQTVVLKGDSGVHFTALPAGHMLGGSIWRICRVTGEDIVYCVDFNHKKERHLNGCSFDNFNRPHLLITGAHHISLPQMRRKDRDEQLVTKILRTVRQKGDCMIVIDTAGRVLELAHLLDQLWSNADAGLSTYNLVMMSHVASSVVQFAKSQLEWMNEKLFKYDSSSARYNPFTLKHVTLCHSHQELMRVRSPKVVLCSSQDMESGFSRELFLDWCSDPRNGVILTARPASFTLAAKLVNMAERANDGVLKHEDRLISLVVKKRVALEGEELLEYKRRKAERDAEETRLRMERARRQAQANESDDSDDDDIAAPIVPRHSEKDFRSFDGSENDAHTFDIMAKWDNQQKASFFKTTKKSFPMFPYIEEKVKWDDYGEVIKPEDYTVISKIDLRKGQNKDEPVVVKKREEEEEVYNPNDHVEEMPTKCVEFKNRVEVSCRIEFIEYEGISDGESTKKLLAGLLPRQIIVVHGSRDDTRDLVAYFADSGFDTTMLKAPEAGALVDASVESFIYQVALSDALLADIQFKEVSEGNSLAWIDARVMEKEAIDNMLAVGTSNLMIDDKNREEDVNDQEENGATEGEGNAEPMEIGENGSQESLAISESGKEVENGHTNDSRTKKGTKGKIRGNLILDPLPKRLIPIHQAVFVNDPKLSDFKNLLTDKGYKAEFLSGTLLINGGNCSIRRNDTGVFQMEGAFTKDYYKLRRLFYDQFAVL” stands “not soluble”; under “MTSLYLASGSPRRQELLAQLGVTFERIVTGIEEQRQPQESAQQYVVRLAREKARAGVAQTAKDLPVLGADTIVILNGEVLEKPRDAEHAAQMLRKLSGQTHQVMTAVALADSQHILDCLVVTDVTFRTLTDEDIAGYVASDEPLDKAGAYGIQGLGGCFVRKINGSYHAVVGLPLVETYELLSNFNALREKRDKHDG”, “soluble”; under “MTSSDKSLSHDVFVYGSFQEPSVVNLILECSPVMVPAQLHGYHVYRLKGRLHACISPSENGLINGKILTGLTDSQLENLDMIEGSEYVRKTVEVVLTDTSEKKQVETYVWANKDDPNLYGEWDFEEWRRLHMDKFIEASTKFIEWKKNPDGRSREEFEKFVFDDPPTAA”, “soluble”. Turning to “MTSTSTPPGLARFNDLGEHAALAALHEACASTTWARRLIAARPYATADDLYTASDAAMAELTAADLAQAMAGHPPIGRPKPGDPTSAREQRGMAGASEELKADMLELNLAYQEKFGHVFLICATGRTGEQMRDAVRERIGNAPEREREIVRTELGKINRIRLARLVEEDAHALEHHHHHH”, the “soluble on expression in E. coli” value is on record as “soluble”. On to “MTSVTDRSAHSAERSTEHTIDIHTTAGKLAELHKRREESLHPVGEDAVEKVHAKGKLTARERIYALLDEDSFVELDALAKHRSTNFNLGEKRPLGDGVVTGYGTIDGRDVCIFSQDATVFGGSLGEVYGEKIVKVQELAIKTGRPLIGINDGAGARIQEGVVSLGLYSRIFRNNILASGVIPQISLIMGAAAGGHVYSPALTDFVIMVDQTSQMFITGPDVIKTVTGEEVTMEELGGAHTHMAKSGTAHYAASGEQDAFDYVRELLSYLPPNNSTDAPRYQAAAPTGPIEENLTDEDLELDTLIPDSPNQPYDMHEVITRLLDDEFLEIQAGYAQNIVVGFGRIDGRPVGIVANQPTHFAGCLDINASEKAARFVRTCDCFNIPIVMLVDVPGFLPGTDQEYNGIIRRGAKLLYAYGEATVPKITVITRKAYGGAYCVMGSKDMGCDVNLAWPTAQIAVMGASGAVGFVYRQQLAEAAANGEDIDKLRLRLQQEYEDTLVNPYVAAERGYVDAVIPPSHTRGYIGTALRLLERKIAQLPPKKHGNVPL”, for which the “soluble on expression in E. coli” value is given as “soluble”. The entry for “MTTATSTEPTLELQRLELAELINRHAGEPFGPASAIDDLYLVRYTENVRSVPTLAQPALCILAQGSKSLFLGDEQYAYDPLHYMVVSVTLPLSAVRLDASPENPSLGLRMDLDPAEISQLIAESGPMLVPNRPSGRGLYVERTDAALLDALLRLLRLLDTPRDIAMLAPLFRREILYRLLRGPQGYRLYEIALANSQTHRVCQAITWLNNNFQQPLRIEDLAREVNLSTSTLHHRFKAVTSMSPLQYQKQLRLQEARRLMLNDGLEAAVAAYRVGYESPSQFSREYSRLYGAPPIRDVARLRATAV” is “not soluble”. The entry for “MTTEFNEIMKEINDSETIIIHRHVRPDPDAYGSQLGLKNYLKLKFPDKKIFAVGETEPSLDFIGTFDEISDDTYNEALVIVCDTANSPRISDERFNQGRLLVKIDHHPAVDQYGDINFVNDQASSTSEIIFDFISHFNDIPIIDASVARVLYLGIVGDTGRFLFNNTTSHTMGVAGQLLTFPFNHNEELNKMGEKDPKLLPFQGYVLQHFDLNEKGFCKVTITKEILEQFDIAANQASLFVNAIADIQGLKIWVFAVDEGTEIRCRIRSKGIVINDIASDFGGGGHPNASGVSVRDWAQFETLAEALNNKLLEHHHHHH” is “soluble”. Regarding “MTTEIKKLDPDTAIDIAYDIFLEMAGENLDPADILLFNLQFEERGGVEFVETADDWEEEIGVLIDPEEYAEVWVGLVNEQDEMDDVFAKFLISHREEDREFHVIWKK”, the “soluble on expression in E. coli” value is listed as “soluble”. Under “MTTETQADRTQQAVGRIIGSIGVVTTQTTGRHQGILTSWVSQASFTPPGIMLAIPGEFDAYGLAGQNKAFVLNLLQEGRSVRRHFDHQPLPKDGDNPFSRLEHYSTQNGCLILAEALAYLECLVQSWSNIGDHVLVYATVQAGQVLQPNGITAIRHRKSGGQYLEHHHHHH” stands “not soluble”; under “MTTGGEDSRRTLSPGTMIVIVGPSGAGKDTLMDYAAAQLSGRPGFHFTRRVITRSCDAGGENHDAVSMHEFNQLEDAGAFAVSWQAHGLKYGIPAAVYRHLEAGDVVIANGSRSALPHFGTAFSRLKVVNIVARPDVLARRLEQRGRESRDDILRRLERSSLAVAGDFDVTTVDNSGAIEDAGKTIMQVLQQSAGSSQP”, “not soluble”. As for “MTTKEITLDENGFATEAGFITVYNYSGETREYISTSTEYLAVGVGIPACSCLDAPVTHKAGYAICRSADFNSWEYVPDHRGEIVFSTETGESKEITAPGDYPDNTTTIAPLTPYDKWDGEKWVTDTEAQHSAAVDAAEAQRQSLIDTAMASISLIQLKLQAGRKLTQAETTRLNAVLDYIDAVTATDTSTAPDVIWPELPEA”, the “soluble on expression in E. coli” value was “not soluble”.

With “MTTKFVVGYDGSAASRRALDFAMERAKAGGASIIVAHVLEWSPYSFLTPTEIEERHKRRAEEMARAETAILAPLKAELAGSGVEIETAIRYGQVADTLCDIATKSGAAQIFIARQGESGLAARVFGSVAGTLAQYAPVPCTIVP”, the “soluble on expression in E. coli” value is given as “not soluble”.

For “MTTPAPVPRITVLLPVYNGEQYLREALDSLLTQTYRNFSLLAVDDGSTDSSLEILRSIKDPRLSVKVNPRNRGLINTLNESLDLIQSEYVARMDADDIATPYRLEEQLAFMDAHPDVGLCGGYYERFTDTESIVVRPPTTHEDISYALIFDNVMAHNTVMFRRSVLERYRLRYDPAFAYAEDYELWVRFARYSRLANLPRVLVRYRFHPANTSSRFRHEQQIAAAKIRHIHRTNLGLEPRPGDAALHRQLFDMRFEGDLPELTAAGIWLSKLYRVGVRRCRQNPVSTFLEFNKLWYSACGRLADHGLKVFAQFLRQPFGFLGNPAYTLKLAYRCWRRIRIALEHHHHHH”, the “soluble on expression in E. coli” value is reported as “not soluble”. The entry for “MTTQAPTFTQPLQSVVVLEGSTATFEAHISGFPVPEVSWFRDGQVISTSTLPGVQISFSDGRAKLTIPAVTKANSGRYSLKATNGSGQATSTAELLVKAETAPPNFVQRLQSMTVRQGSQVRLQVRVTGIPTPVVKFYRDGAEIQSSLDFQISQEGDLYSLLIAEAYPEDSGTYSVNATNSVGRATSTAELLVQGETREEF” is “soluble”. The entry for “MTTTGLRPRLNVRQRKDTGYLPHSSPFSLQFRPAILYSDGYLPQVPEDKNETDKIHTPRIVPQKLERTPSDTSRSRGCHCFYAGWL” is “not soluble”.
